Data from paper PMC6544321.

Legend:
[1] = molecular target: single chain H2A-H2B with H2A P50A/N91G (yeast); assay: ITC; 0.2 M NaCl (Table 1); Swc2-Z or Chz1-M injected into single-chain histone dimers; otherwise as the ITC methods (25°C, 20 mM MES pH 6.0)
[2] = molecular target: yeast single chain H2A-H2B (yeast); assay: as above
[3] = molecular target: yeast single-chain H2A.Z-H2B (yeast); assay: as above
[4] = molecular target: single-chain H2A.Z-H2B with H2A.Z A57P/G98N (yeast); assay: as above
[5] = molecular target: A. thaliana Z-B dimer (AtH2A.Z/AtH2B dimer) (Arabidopsis thaliana); assay: ITC; AtChz1b (253-463) with A. thaliana histone dimers in 0.1 M NaCl
[6] = molecular target: A. thaliana Z-B dimer (AtH2A.Z/AtH2B dimer) (Arabidopsis thaliana); assay: ITC; AtChz1b (253-463) with A. thaliana histone dimers in 0.25 M NaCl

| Kd [1] | stoichiometry N [1] | stoichiometry N [2] | Kd [3] | stoichiometry N [3] | Kd [4] | stoichiometry N [4] | Kd [5] | Kd [6] | Substance |
| --- | --- | --- | --- | --- | --- | --- | --- | --- | --- |
| 0.17 µM | 1 sites | 0.9 sites | 0.04 µM | 1.1 sites | 0.04 µM | 0.8 sites | – | – | Swc2-Z, the 1–136 segment of the Swc2 subunit of the SWR1 complex (domain or fragment) |
| – | – | – | – | – | – | – | 0.05 µM | 19.9 µM | AtChz1b (residues 253–463) (domain or fragment) |
